From patent publication US20160303245A1, “FATTY ACID DERIVATIVES OF DIMERIC INHIBITORS OF PSD-95” (UNIVERSITY OF COPENHAGEN, priority 2013, published 2016)

Assays:
[1] = molecular target: Human Serum Albumin (human), P02768; test: Transil XL HSA binding kit (immobilized HSA), unbound compound by RP-HPLC
[2] = molecular target: Human Serum Albumin (human), P02768; test: calculated from KD(HSA) at 150 µM HSA (equation 2)

| Kd [1] [µM] | fu (%), fraction unbound [2] [%] | Binder |
| --- | --- | --- |
| 55 | 26.8 | IETDV (modifications not checked) [FA-linked dimeric ligand 15] |
| 116 | 43.6 | IETDV (modifications not checked) [FA-linked dimeric ligand 14] |
